Results taken from patent US20250352661A1 (MYTHIC THERAPEUTICS, published 2025).

T1: Human LRRC15 Protein, His Tag (Acro Biosystems) (human, UniProt Q8TF66 22-538, limits assumed)
T1 construct: not shown: His tag
T1 sequence (looked up): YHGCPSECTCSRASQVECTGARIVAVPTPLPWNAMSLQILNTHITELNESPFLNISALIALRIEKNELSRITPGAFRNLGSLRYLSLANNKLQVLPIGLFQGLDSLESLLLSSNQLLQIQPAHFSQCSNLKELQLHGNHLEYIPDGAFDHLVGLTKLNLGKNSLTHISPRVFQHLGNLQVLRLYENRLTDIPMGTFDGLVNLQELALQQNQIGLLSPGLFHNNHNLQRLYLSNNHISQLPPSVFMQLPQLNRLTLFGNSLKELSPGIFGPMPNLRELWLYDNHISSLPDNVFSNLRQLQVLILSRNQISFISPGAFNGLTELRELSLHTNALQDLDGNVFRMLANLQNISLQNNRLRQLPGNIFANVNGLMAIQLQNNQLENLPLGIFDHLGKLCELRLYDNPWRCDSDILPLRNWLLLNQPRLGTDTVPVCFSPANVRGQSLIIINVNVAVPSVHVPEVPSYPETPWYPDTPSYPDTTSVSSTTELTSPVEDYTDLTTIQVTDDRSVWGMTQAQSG

T2: LRRC15 on the surface of LRRC15+ cells (SAOS-2, U87MG) (UniProt Q8TF66 22-581, limits assumed)
T2 sequence (looked up): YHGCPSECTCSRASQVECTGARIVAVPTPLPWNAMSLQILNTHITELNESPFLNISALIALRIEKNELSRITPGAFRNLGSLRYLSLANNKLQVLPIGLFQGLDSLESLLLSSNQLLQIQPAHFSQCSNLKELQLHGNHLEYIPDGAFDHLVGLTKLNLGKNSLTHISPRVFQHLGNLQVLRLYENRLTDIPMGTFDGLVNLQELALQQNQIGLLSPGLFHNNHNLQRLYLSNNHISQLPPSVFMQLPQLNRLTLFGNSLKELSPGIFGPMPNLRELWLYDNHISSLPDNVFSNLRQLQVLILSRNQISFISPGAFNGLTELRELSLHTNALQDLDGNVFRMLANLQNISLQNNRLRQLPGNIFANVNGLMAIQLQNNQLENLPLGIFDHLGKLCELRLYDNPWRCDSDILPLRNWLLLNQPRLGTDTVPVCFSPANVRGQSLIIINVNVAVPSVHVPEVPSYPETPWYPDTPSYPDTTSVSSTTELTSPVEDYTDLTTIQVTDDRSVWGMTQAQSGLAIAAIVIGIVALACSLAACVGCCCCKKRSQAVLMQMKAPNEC

T3: LRRC15 on LRRC15 positive cell lines SAOS2 and G292 (UniProt Q8TF66 22-581, limits assumed)
T3 construct: whole, on cells
T3 sequence (looked up): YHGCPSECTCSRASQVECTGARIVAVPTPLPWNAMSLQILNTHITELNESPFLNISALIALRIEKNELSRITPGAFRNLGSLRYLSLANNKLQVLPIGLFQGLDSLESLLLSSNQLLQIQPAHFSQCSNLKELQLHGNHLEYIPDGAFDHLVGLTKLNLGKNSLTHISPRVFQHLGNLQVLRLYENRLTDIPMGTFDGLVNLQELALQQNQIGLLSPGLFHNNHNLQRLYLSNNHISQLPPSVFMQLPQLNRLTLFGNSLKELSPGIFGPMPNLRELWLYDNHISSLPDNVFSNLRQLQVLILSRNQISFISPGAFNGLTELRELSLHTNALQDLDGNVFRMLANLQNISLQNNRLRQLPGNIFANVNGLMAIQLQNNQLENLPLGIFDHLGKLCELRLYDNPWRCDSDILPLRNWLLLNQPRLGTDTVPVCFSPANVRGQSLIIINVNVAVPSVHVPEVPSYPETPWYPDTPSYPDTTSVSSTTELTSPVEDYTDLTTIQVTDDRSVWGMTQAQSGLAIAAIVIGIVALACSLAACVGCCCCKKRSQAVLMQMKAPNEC


Experiments:
[1] = target: T1, Human LRRC15 Protein, His Tag (Acro …); test: BLI; dissociation pH 7.4 black, pH 5.4 grey [2/2); D00020 FIG. 4B (2/2]
Protocol: Desirable mutations were transferred to a humanized framework (humanized, MYT 8387-8411). After allowing for four days of protein expression, cell culture supernatants were collected, quantified by SDS-PAGE analysis, and the pH dependence of the variant was evaluated using biolayer interferometry (BLI) on an Octet RED 96e instrument. Briefly, cell culture supernatants were diluted based on qualitative expression level of the variant determined by visual examination of SDS-PAGE gels, 5 μL of cell culture supernatant was diluted into 195 μL of 1×PBST, pH 7.4 for high expressors, 25 μL of cell culture supernatant was diluted into 175 μL of 1×PBST, pH 7.4 for medium expressors and 100 μL of cell culture supernatant was diluted into 100 μL of 1×PBST, pH 7.4 for low expressors for loading onto the sensor tips. The resulting diluted supernatants were then captured on an anti-human Fc sensor (Forte Bio). A baseline was established using 1×PBST (50 mM Potassium Phosphate Buffer+150 mM NaCl+0.05% Tween 20) pH 7.4, and the […] was associated with 50 nM of LRRC15 (Human LRRC15 Protein, His Tag, Acro Biosystems) in 1×PBST pH 7.4 for 120 sec to generate an association curve. In the dissociation phase, the antibody-antigen complex on the sensor was exposed to 1×PBST pH 7.4 or pH 5.4, for 300 sec. Association and dissociation phase curves were examined for the starting ABPC antibody (with no substitutions) and each corresponding antibody variant at pH 5.4 and pH 7.4 to inform on two criteria: a) enhanced dissociation (i.e., higher koff values) at pH 5.4 due to histidine substitution compared to the starting ABPC, (with no substitutions), and b) reduced dissociation at pH 7.4 (i.e., lower koff values) compared to pH 5.4 in the antibody variant itself and with the starting ABPC (with no substitutions).
The methods of Examples 9-10 were applied to RabMAb clone 29F1 (rabbit VH SEQ ID NO: 572 and VL SEQ ID NO: 578; and humanized VH SEQ ID NO: 576 and VL SEQ ID NO: 582).

[2] = target: T1, Human LRRC15 Protein, His Tag (Acro …); test: BLI; dissociation pH 7.4 black, pH 5.4 grey [2/2); D00026 FIG. 6B (2/2]
[3] = target: T2, LRRC15 on the surface of LRRC15+ cells …; test: cell-based or functional assay
[4] = target: T2, LRRC15 on the surface of LRRC15+ cells …; test: cell-based or functional assay; remark: listed apart in the source
[5] = target: T2, LRRC15 on the surface of LRRC15+ cells …; test: cell-based or functional assay; remark: listed apart in the source
[6] = target: T3, LRRC15 on LRRC15 positive cell lines …; test: cell binding on G292 cells (LRRC15 positive), pH 6.4
[7] = target: T3, LRRC15 on LRRC15 positive cell lines …; test: cell binding on G292 cells (LRRC15 positive), pH 7.4; set-up: unit not given here
[8] = target: T3, LRRC15 on LRRC15 positive cell lines …; test: cell binding on SAOS2 cells (LRRC15 positive), pH 6.4
[9] = target: T3, LRRC15 on LRRC15 positive cell lines …; test: cell binding on SAOS2 cells (LRRC15 positive), pH 7.4; set-up: unit not given here

Row | Binder | binding result [1] | binding result [2] | also measured
1 | MYT9496 (antibody, V domains shown, also called hu29F1 VH P102D) VH: EVQLVESGGGLVQPGGSLRLSCTASGFSFSSSHWICWVRQAPGKGLEWVGCIYAGSIGSTYYASWAKGRFTISRDTSKNTVYLQMNSLRAEDTAVYYCARADNDIYNYYFNLWGQGTLVTVSS VL: EIVMTQSPSTLSASVGDRVIITCQASENIYNYLAWYQQKPGKAPKLLIYYASTLASGVPSRFSGSGSGAEFTLTISSLQPDDFATYYCQSGYVSKSSTFGQGTKLTVL | binds |  | 
2 | MYT9498 (antibody, V domains shown, also called hu29F1 VH D104A) VH: EVQLVESGGGLVQPGGSLRLSCTASGFSFSSSHWICWVRQAPGKGLEWVGCIYAGSIGSTYYASWAKGRFTISRDTSKNTVYLQMNSLRAEDTAVYYCARAPNAIYNYYFNLWGQGTLVTVSS VL: EIVMTQSPSTLSASVGDRVIITCQASENIYNYLAWYQQKPGKAPKLLIYYASTLASGVPSRFSGSGSGAEFTLTISSLQPDDFATYYCQSGYVSKSSTFGQGTKLTVL | binds |  | 
3 | MYT9726 (antibody, V domains shown, also called hu29F1 VH L112E) VH: EVQLVESGGGLVQPGGSLRLSCTASGFSFSSSHWICWVRQAPGKGLEWVGCIYAGSIGSTYYASWAKGRFTISRDTSKNTVYLQMNSLRAEDTAVYYCARAPNDIYNYYFNEWGQGTLVTVSS VL: EIVMTQSPSTLSASVGDRVIITCQASENIYNYLAWYQQKPGKAPKLLIYYASTLASGVPSRFSGSGSGAEFTLTISSLQPDDFATYYCQSGYVSKSSTFGQGTKLTVL |  | binds | 
4 | MYT9724 (antibody, V domains shown, also called hu29F1 VH F110E) VH: EVQLVESGGGLVQPGGSLRLSCTASGFSFSSSHWICWVRQAPGKGLEWVGCIYAGSIGSTYYASWAKGRFTISRDTSKNTVYLQMNSLRAEDTAVYYCARAPNDIYNYYENLWGQGTLVTVSS VL: EIVMTQSPSTLSASVGDRVIITCQASENIYNYLAWYQQKPGKAPKLLIYYASTLASGVPSRFSGSGSGAEFTLTISSLQPDDFATYYCQSGYVSKSSTFGQGTKLTVL |  | binds | 
5 | MYT9716 (antibody, V domains shown, also called hu29F1 VH P102E) VH: EVQLVESGGGLVQPGGSLRLSCTASGFSFSSSHWICWVRQAPGKGLEWVGCIYAGSIGSTYYASWAKGRFTISRDTSKNTVYLQMNSLRAEDTAVYYCARAENDIYNYYFNLWGQGTLVTVSS VL: EIVMTQSPSTLSASVGDRVIITCQASENIYNYLAWYQQKPGKAPKLLIYYASTLASGVPSRFSGSGSGAEFTLTISSLQPDDFATYYCQSGYVSKSSTFGQGTKLTVL |  | binds | 
6 | MYT9722 (antibody, V domains shown, also called hu29F1 VH Y108E) VH: EVQLVESGGGLVQPGGSLRLSCTASGFSFSSSHWICWVRQAPGKGLEWVGCIYAGSIGSTYYASWAKGRFTISRDTSKNTVYLQMNSLRAEDTAVYYCARAPNDIYNEYFNLWGQGTLVTVSS VL: EIVMTQSPSTLSASVGDRVIITCQASENIYNYLAWYQQKPGKAPKLLIYYASTLASGVPSRFSGSGSGAEFTLTISSLQPDDFATYYCQSGYVSKSSTFGQGTKLTVL |  | binds | 
7 | MYT9505 (antibody, V domains shown, also called hu29F1 VH N111D) VH: EVQLVESGGGLVQPGGSLRLSCTASGFSFSSSHWICWVRQAPGKGLEWVGCIYAGSIGSTYYASWAKGRFTISRDTSKNTVYLQMNSLRAEDTAVYYCARAPNDIYNYYFDLWGQGTLVTVSS VL: EIVMTQSPSTLSASVGDRVIITCQASENIYNYLAWYQQKPGKAPKLLIYYASTLASGVPSRFSGSGSGAEFTLTISSLQPDDFATYYCQSGYVSKSSTFGQGTKLTVL | binds |  | 
8 | MYT9725 (antibody, V domains shown, also called hu29F1 VH N111E) VH: EVQLVESGGGLVQPGGSLRLSCTASGFSFSSSHWICWVRQAPGKGLEWVGCIYAGSIGSTYYASWAKGRFTISRDTSKNTVYLQMNSLRAEDTAVYYCARAPNDIYNYYFELWGQGTLVTVSS VL: EIVMTQSPSTLSASVGDRVIITCQASENIYNYLAWYQQKPGKAPKLLIYYASTLASGVPSRFSGSGSGAEFTLTISSLQPDDFATYYCQSGYVSKSSTFGQGTKLTVL |  | binds | 
9 | MYT9506 (antibody, V domains shown, also called hu29F1 VH L112D) VH: EVQLVESGGGLVQPGGSLRLSCTASGFSFSSSHWICWVRQAPGKGLEWVGCIYAGSIGSTYYASWAKGRFTISRDTSKNTVYLQMNSLRAEDTAVYYCARAPNDIYNYYFNDWGQGTLVTVSS VL: EIVMTQSPSTLSASVGDRVIITCQASENIYNYLAWYQQKPGKAPKLLIYYASTLASGVPSRFSGSGSGAEFTLTISSLQPDDFATYYCQSGYVSKSSTFGQGTKLTVL | binds |  | 
10 | MYT8416 (antibody, V domains shown) VH: EVQLVESGGGLVQPGGSLRLSCTASGLDFRRTNYICWVRQAPGKGLEWVGCIYIADVVHYYASWAKGRFTFSRDTSKNTVYLQMNSLRAEDTAVYYCARGADGGFVYGMDLWGQGTLVTVSS VL: EIVMTQSPSTLSASVGDRVIITCQASQSIGNYLSWYQQKPGKAPKRLIYSASTLPSGVPSRFSGSGSGAEFTLTISSLQPDDFATYYCQNNYHLAGYGHPFGQGTKLTVL |  |  | Internalization in SAOS-2 cells (10 nM, 24 hours), FOB = fold over background (IgG control) [3]: 2.71 fold over background (IgG control); Internalization in SAOS-2 cells (10 nM, 24 hours), FOS = fold over samrotamab [3]: 1.05 fold over samrotamab; Internalization in U87MG cells (10 nM, 24 hours), FOB = fold over background (IgG control) [4]: 3.05 fold over background (IgG control); Internalization in U87MG cells (10 nM, 24 hours), FOS = fold over samrotamab [4]: 2.39 fold over samrotamab; Cytotoxicity against SAOS-2 cells, Fold over MYT5438 (mAb complexed with MMAF-conjugated secondary antibody, CTG assay) [5]: 1.13 fold over MYT5438
11 | MYT5438, samrotamab ADC, Hinge Conjugated, DAR 2.0 (antibody, V domains shown, ADC: payload conjugated at the hinge, DAR 2.0 (payload not given) ; ADC: payload conjugated at hinge cysteines, DAR 2.0. The letters do not carry it., also called Sam; ADC, Hinge (DAR 2.0); Samrotamab WT) VH: EVQLVQSGAEVKKPGASVKVSCKASGYKFSSYWIEWVKQAPGQGLEWIGEILPGSDTTNYNEKFKDRATFTSDTSINTAYMELSRLRSDDTAVYYCARDRGNYRAWFGYWGQGTLVTVSS VL: DIQMTQSPSSLSASVGDRVTITCRASQDISNYLNWYQQKPGGAVKFLIYYTSRLHSGVPSRFSGSGSGTDYTLTISSLQPEDFATYFCQQGEALPWTFGGGTKVEIK |  |  | Affinity [6]: 0.187; Affinity [7]: 0.165; Affinity [8]: 0.336; Affinity [9]: 0.31
